# From patent publication US20250090677A1 (MULTITUDE THERAPEUTICS, published 2025)
# Substitutions are numbered along the chain they refer to.
# T1: cyno monkey CDH6-ECD-His (cyno monkey, UniProt A0A2K5TW62 54-615)
# T1 construct: extracellular domain; Bought protein; also called Cyno CDH6-ECD-His; not shown: His tag
# T1 sequence: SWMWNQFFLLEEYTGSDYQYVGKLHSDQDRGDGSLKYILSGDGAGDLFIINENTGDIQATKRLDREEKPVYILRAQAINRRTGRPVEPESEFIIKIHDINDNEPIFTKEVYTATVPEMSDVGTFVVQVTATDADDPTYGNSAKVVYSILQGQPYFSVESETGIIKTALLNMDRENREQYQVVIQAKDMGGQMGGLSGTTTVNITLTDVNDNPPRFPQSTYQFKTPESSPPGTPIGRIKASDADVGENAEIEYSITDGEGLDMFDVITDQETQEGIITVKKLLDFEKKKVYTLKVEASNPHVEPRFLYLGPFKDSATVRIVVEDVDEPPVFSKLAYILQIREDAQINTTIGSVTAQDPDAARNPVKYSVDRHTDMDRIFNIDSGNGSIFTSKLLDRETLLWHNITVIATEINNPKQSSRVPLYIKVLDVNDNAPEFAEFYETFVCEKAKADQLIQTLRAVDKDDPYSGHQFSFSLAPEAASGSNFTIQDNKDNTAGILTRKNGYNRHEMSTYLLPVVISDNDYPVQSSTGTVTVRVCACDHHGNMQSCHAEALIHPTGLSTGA
# T2: Human CDH6-ECD-His (human, UniProt P55285 54-615)
# T2 construct: extracellular domain; Bought protein; also called human CDH6-ECD-His recombinant protein; Human CDH6-EC6D-His; not shown: His tag
# T2 sequence (looked up): T1 sequence with H300Y, R457H
# T3: rat CDH6-ECD-His (rat, UniProt P55280 54-615)
# T3 construct: extracellular domain; Bought protein; not shown: His tag
# T3 sequence (looked up): T1 sequence with E109D, S119A, L260H, K288R, V301I, E322D, L333P, T353A, R457H
# B1: CL069707-H1L1 (antibody, human IgG1, kappa, V domains shown)
# VH: EVQLVESGGGLVQPGGSLRLSCAASGFTFTTYAMNWVRQAPGKGLEWVARIRIKNNNYATYYADSVTDRFTISRDDSKNSLYLQMNSLKTEDTAVYYCVRPDYGNYGLAYWGQGTLVTVSS
# VL: DIQLTQSPSSLSASVGDRVTITCSASSSISSHYLHWYQQKPGKSPKLLIYRSFYLASGVPSRFSGSGSGTDFTLTISSLQPEDFATYYCQQDIVPLTFGQGTKLEIKR
# notes: Humanized IgG1/kappa, produced in 293 cells; also called humanized CL069707-H1L1
# Columns and labels:
# cyno monkey CDH6-ECD-His [1] = biological target: T1, cyno monkey CDH6-ECD-His; experiment: ELISA, antigen coated at 1 ug/mL, 3-fold antibody dilutions, HRP anti-human antibody, OD450
# Experimental: (§1) CDH9 and […] are the most closely related family members to CDH6. Binding of CL069707-H1L1 on human CDH6, CDH9 and CDH10 ECD domains were analyzed by ELISA Binding Assay. Human […], CDH9-ECD-His and CDH10-ECD-His antigens were obtained from Acro Biosystems, Inc. 100 μL of 1 μg/mL of the antigens diluted in PBS were added to 96 well plates and incubated in 4° C. overnight. The plates were washed 3 times with 300 μL of washing buffer. Then 100 μL/well of 1% BSA blocking reagent were added to the plates, and incubated at 37° C. for 1 h then the blocking reagent were discarded. A 3-fold serial dilution of CL069707-H1L1 was added to the plates and then incubated at 37° C. for 1 h. Then the plates were washed 3 times with 300 μL of washing buffer. 100 μL/well of HRP-conjugated anti-Human antibody diluted in 1% BSA were added to the plates and then incubated at 37° C. for 1 h. The plates were washed 3 times with 300 μL of washing buffer. 100 μL/well of TMB substrate were added to the plates and incubated for about 10 min in room temperature. Then the reaction was stopped with 100 μL/well of stopping solution. OD450 was read with a plate reader and the data were processed.
# (§2) Binding of CL069707-H1L1 on human, cyno monkey, mouse or rat CDH6 antigen were analyzed by ELISA. Human, cyno monkey, mouse and rat CDH6-ECD-His antigens were obtained from Acro Biosystems, Inc. ELISA were done with the same methods as in example 3.1. CL069707-H1L1 binds to human, cyno monkey, mouse and rat CDH6-ECD-His antigens with similar EC50.
# Human CDH6-ECD-His = biological target: T2, Human CDH6-ECD-His; experiment: as above
# Experimental: as §1, §2
# rat CDH6-ECD-His = biological target: T3, rat CDH6-ECD-His; experiment: as above
# Experimental: as §1, §2
# cyno monkey CDH6-ECD-His [2] = biological target: T1, cyno monkey CDH6-ECD-His; experiment: BLI (Octet), antibody on AHC sensor, antigen 3.13-100 nM, 1:1 model
# Experimental: Binding affinities of CL069707-H1L1 and Ch069707 were measured using the Octet® system based on Bio-Layer Interferometry (BLI) technique. Antibodies were loaded to AHC (Anti-hIgG Fc Capture) at 100 nM concentration. […] From the six different binding curves obtained from each antigen concentration, binding constants (KD) were calculated based on the 1:1 binding model. CL069707-H1L1 and Ch069707 binds to human CDH6-ECD-His antigen with similar affinity. CL069707-H1L1 binds to human CDH6-ECD-His and cyno monkey CDH6-ECD-His antigens with similar affinity.
binder,measurement,setting,value
B1,EC50 (read off the curve),cyno monkey CDH6-ECD-His [1],~0.1 nM
same,EC50 (read off the curve),Human CDH6-ECD-His,~0.1 nM
same,EC50 (read off the curve),rat CDH6-ECD-His,~0.1 nM
same,Kd,cyno monkey CDH6-ECD-His [2],2.69 nM
